Results: patent US20250009913A1, “COMPOUNDS FOR USE IN NON-COVALENT SCAFFOLD AND METHODS RELATED THERETO” (NORTH CAROLINA STATE UNIVERSITY, priority 2023, published 2025)
Like-named read-outs stand apart in the source and are kept apart here.

Tests used:
[1] = biological target: T1, alkaline phosphatase (ALP) (Bos taurus, UniProt P19111); experiment: Enzymatic assay of 5 with alkaline phosphatase, aggregation followed by absorption spectroscopy; format: biochemical, bovine
T1 construct: Alkaline phosphatase from bovine intestinal mucosa was purchased from Sigma-Aldrich; purchased Sigma-Aldrich; host or cells: bovine intestinal mucosa (tissue-derived)
T1 sequence (P19111 20-506 limits assumed): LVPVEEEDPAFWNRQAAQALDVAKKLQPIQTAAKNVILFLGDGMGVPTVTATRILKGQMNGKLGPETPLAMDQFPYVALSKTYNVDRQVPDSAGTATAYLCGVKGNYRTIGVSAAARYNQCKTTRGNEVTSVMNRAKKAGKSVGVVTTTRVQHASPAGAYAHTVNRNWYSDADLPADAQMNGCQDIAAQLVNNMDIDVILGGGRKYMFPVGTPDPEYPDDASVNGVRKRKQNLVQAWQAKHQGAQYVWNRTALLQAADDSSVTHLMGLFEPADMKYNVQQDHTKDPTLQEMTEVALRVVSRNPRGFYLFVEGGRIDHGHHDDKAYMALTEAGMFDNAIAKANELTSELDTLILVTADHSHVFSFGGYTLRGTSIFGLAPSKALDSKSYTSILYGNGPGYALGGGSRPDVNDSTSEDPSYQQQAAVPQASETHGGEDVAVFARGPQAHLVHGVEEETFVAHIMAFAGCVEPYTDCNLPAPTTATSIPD
Description: The stock solution of 5 in DMSO was diluted with PBS to prepare sample solutions with different concentrations (0.10 μM, 0.20 μM, 0.50 μM, 1.0 μM, 2.0 μM, and 5.0 μM). Each sample was treated with 2 U/mL of alkaline phosphatase (ALP) and incubated overnight at 37° C. The absorption spectra across the range 300-700 nm, where the porphyrin absorbs strongly, were measured before and after the enzyme treatment for each sample (FIG. 4, panels A-F). For samples with concentration lower than 0.50 μM (FIG. 4, panels A, B), the intensity of the Soret band of 5 at 420 nm decreased after enzyme treatment, yet precipitation or other signs of aggregation were not observed. When the concentration of the sample was equal to or higher than 0.50 μM (FIG. 4, panels C-F), the intensity of the Soret peak at 420 nm decreased and a new peak appeared at 455 nm after the enzyme treatment. The new peak at 455 nm indicates the aggregation of the sample upon the treatment of ALP. The Q band (at ˜550 nm) also underwent a bathochromic shift and broadening, albeit of lesser magnitude than that of the higher-energy Soret band. Compound 5′, which lacks the two phosphoester moieties, is prone to aggregation in PBS, consistent with the observed results for ALP treatment of 5. The change in the color of the sample was also observed. After the overnight incubation, the color of the sample changed from pink to orange.
To confirm that the peak appeared after enzyme treatment was caused by aggregation, DMSO was added to the sample of 5 (5.0 μM in PBS) after enzyme treatment to disaggregate the sample. After adding DMSO to dilute the solution in half, the peak at 455 nm almost disappeared and the intensity of the peak at 420 nm increased. Color changes of the solution were observed during the treatment, with the solution appearing pink initially (indicating a monomeric state), then yellow after treatment with ALP (indicating aggregation), and finally returning to pink after dilution with DMSO, albeit a lighter pink than the initial solution, due to dilution (indicating disaggregation). The result further confirmed that compound 5 aggregates in aqueous solution after the enzyme treatment.
Enzymatic assay. The stock solution of 5 in DMSO (2 mM) was diluted with PBS to prepare sample solutions with different concentrations. The final concentrations of 5 in each sample were 0.20 μM, 0.50 μM, 1.0 μM, 2.0 μM, 5.0 μM and 10 μM, respectively. A solution of alkaline phosphatase from bovine intestinal mucosa (10 μL, 100 U/mL in PBS) was added to each sample solution to reach a final volume of 500 μL (PBS containing 0.5% DMSO). The reaction mixture was incubated overnight at 37° C. Then each sample was analyzed by absorption spectroscopy. Samples without the treatment of ALP were also analyzed to serve as controls.
To confirm the aggregation of the dephosphorylated 5 in PBS, 500 μL of DMSO was added to one of the treated samples (10 μM) and was then analyzed by absorption spectroscopy.

[2] = biological target: T1, alkaline phosphatase (ALP); experiment: Enzymatic cleavage of 5 by ALP monitored by reverse-phase HPLC; format: biochemical, bovine; conditions: 200 μM in PBS, 2 U/mL ALP, 37° C., 6-hour incubation
Description: The enzymatic cleavage was monitored with reverse-phase high performance liquid chromatography. A solution of 200 μM 5 in PBS was treated with 2 U/mL ALP and incubated at 37° C. A small part of sample was taken from the reaction at different time points (30 min, 1 h, 2 h, 4 h, 6 h and 8 h) and was analyzed by HPLC (5-95% MeCN/10 mM NH4HCO3 in H2O) (FIG. 7). The 3 peaks in the chromatograph after 30 min of ALP treatment represents compound 5 (peak 1), partially cleaved product (peak 2) and fully cleaved product (peak 3). The reaction almost completes after 6-hour incubation (>95% by integration). The LC trace of the standard dephosphorylated sample 5′ is shown for comparison. Attempts were made to get LC-MS data for 5 but no mass signal was detected. This might result from the poor solubility of 5 in the acidic mobile phase (MeCN/H2O, 0.1% FA).
Reverse phase high performance liquid chromatography. A solution of 200 μM 5 in PBS was treated with 2 U/mL ALP and incubated at 37° C. A small part of sample was taken from the reaction at different time points (30 min, 1 h, 2 h, 4 h, 6 h and 8 h) and was analyzed by RP-HPLC with an Agilent Zorbax SB-C18 column (5 μm, 4.6×150 mm). The sample was run for 15 min with a linear gradient (5-95% MeCN/10 mM NH4HCO3 in H2O) and detected with a diode-array detector at 420 nm.

[3] = Absorption spectroscopy in PBS or DMSO (solubility / aggregation); format: physicochemical; conditions: PBS; absorption spectra 0.1-100 μM; read-out: soluble in PBS with essentially no aggregation or assembly
Description: Samples of 5′ at 1 μM in DMSO or PBS were analyzed by absorption spectroscopy (FIG. 8, panel A). […] In PBS, two broad peaks at 417 nm and 455 nm were observed, indicating aggregation of the sample at 1 μM. Samples of 4′ at 1 μM in DMSO or PBS were also analyzed for comparison (FIG. 8, panel B). The spectrum of the sample in DMSO was identical with 5′, while in PBS the Soret band spilt into 3 broad peaks at 409 nm, 419 nm and 455 nm. The different spectra between 4′ and 5′ might result from different ways of porphyrin stacking, as 4′ doesn't have the long PEG chain in its structure.
Samples of 0.1 μM, 1 μM, 10 μM and 100 μM were analyzed using cuvettes with a pathlength of 10 cm, 1 cm, 0.1 cm and 0.01 cm, respectively. There is only a very slight broadening of the absorption bands at 100 μM, and at all concentrations the general spectroscopic features characteristic of the porphyrin are retained.

[4] = tested on: alkaline phosphatase (ALP); conditions: 10 μM in PBS, 10 min at 10000 rpm
Description: Samples of 5 (10 μM in PBS) with or without ALP treatment were centrifuged with Amicon centrifugation devices (molecular cutoff 50 kDa). […] Solutions collected in the bottom or top tube for the sample that underwent enzyme treatment were analyzed with absorption spectroscopy (FIG. 5).

[5] = Fluorescence spectroscopy of aggregation (intensity in PBS vs DMSO); format: physicochemical; conditions: 316 nM in PBS; incomplete aggregation
Description: Aggregation of 5′ at low concentrations was analyzed by fluorescence spectroscopy. The ratio of maximum fluorescence intensity of samples in PBS to that of sample in DMSO was plotted against concentration (FIG. 9). The ratio decreased as the concentration increased in the range of 1.0 nM to 316 nM, which implies that 5′ aggregates more in PBS as the concentration increases. Even with the concentration of 316 nM, the sample didn't aggregate completely in PBS and retained ˜30% fluorescence. The long PEG chain in 5′ provides the compound with good hydrophilicity and may contribute to incomplete aggregation. Fluorescence intensity at higher or lower concentrations was not measured due to the detection range of the instrument. The porphyrin-peptide conjugate without PEG chain, 4′, was examined by fluorescence intensity as well. Samples at 31.6 nM, 100 nM, and 316 nM were analyzed and the fluorescence intensity ratio of all samples was below 2%. The results imply that 4′ almost aggregates completely even at a very low concentration.
Fluorescence spectroscopy. Samples were dissolved in PBS and DMSO at different concentrations. The excitation wavelength was 419 nm for all samples in DMSO, 415 nm for 5′ in PBS, and 419 nm for 4′ in PBS. The intensity ratio was calculated with the maximum emission of each sample. […]

| Compound | behaviour of activated form at very low concentration ([1]; 0.1 μM) | concentration at which new peak at 455 nm (aggregation) appears after enzyme treatment ([1]; PBS with 0.5% DMSO, 2 U/mL ALP, overnight 37° C.) [nM] | reversibility of aggregation ([1]; after ALP treatment in PBS, upon addition of DMSO) | precipitation after high-speed centrifugation or long-time storage ([1]; after ALP treatment, centrifugation >10000 rpm or storage >1 month) | formation of microcrystals or precipitates upon ALP treatment ([1]; concentration as high as 200 μM) | completion of dephosphorylation reaction by HPLC integration [2] [%] | solubility [3] [µM] | passage through 50 kDa membrane ([4]; after ALP treatment) | passage through 50 kDa membrane ([4]; without ALP treatment) | fluorescence retained in PBS (relative to DMSO) [5] [%] |
| --- | --- | --- | --- | --- | --- | --- | --- | --- | --- | --- |
| COCCOCCOCCOCCOCCOCCOCCOCCOCCOCCOCCOCCOCCOCCOCCOCCOCCOCCOCCOCCOCCOCCOCCOCCn1cc(-c2ccc(-c3c4nc(cc5ccc([nH]5)c(-c5c(OCc6cn(CCC(=O)NCC(=O)N[C@H](Cc7ccccc7)C(=O)N[C@H](Cc7ccccc7)C(=O)N[C@@H](Cc7ccc(OP(=O)(O)O)cc7)C(=O)O)nn6)cccc5OCc5cn(CCC(=O)NCC(=O)N[C@H](Cc6ccccc6)C(=O)N[C@H](Cc6ccccc6)C(=O)N[C@@H](Cc6ccc(OP(=O)(O)O)cc6)C(=O)O)nn5)c5nc(cc6ccc3[nH]6)C=C5)C=C4)cc2)nn1 [Compound 5, PEG24-GffY(p)-OH] | came out of solution without forming a gel superstructure | ≥ 500 | reversible | No precipitation or microcrystals were observed | did not form microcrystals or precipitates | > 95 | ≥ 100 | didn't pass through the membrane | passed through the 50 kDa membrane | – |
| PEG24-GffY-OH [Compound 5′] | – | – | – | – | – | – | – | – | – | ~30 |
